The target of test [1] is USF-1 (UniProt P22415). Kind of test: co-immunoprecipitation, immunoblot. The note with it: reference: wild type; sites T505. Background: A western blot detects proteins with antibodies after separation by electrophoresis.
In test [2] the target is USF-1 overexpressed in 293FT cells (UniProt P22415).
The target is the same in test [3]. This is another data set of the same source.

Chain of USF-1 overexpressed in 293FT cells (P22415 whole entry): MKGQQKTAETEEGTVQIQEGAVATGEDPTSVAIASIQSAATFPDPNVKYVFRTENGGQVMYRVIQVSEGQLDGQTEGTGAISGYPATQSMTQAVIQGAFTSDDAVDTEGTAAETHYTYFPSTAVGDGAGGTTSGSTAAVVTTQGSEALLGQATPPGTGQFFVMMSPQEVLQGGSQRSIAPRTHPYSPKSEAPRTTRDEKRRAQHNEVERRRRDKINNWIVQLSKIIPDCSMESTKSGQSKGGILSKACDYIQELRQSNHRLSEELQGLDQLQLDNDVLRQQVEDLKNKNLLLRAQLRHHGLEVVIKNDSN

For the substance JMJD1C (from UniProt Q15652) T505A, in test [1], the “binding against the reference” value is “lost”.
Take JMJD1C T505D mutant, Q15652 1-2540: in test [2], the ChIP-qPCR enrichment at the FAS promoter (FAS promoter luc construct) upon insulin treatment amounted to 17 fold.
In test [3], WT JMJD1C, Q15652 1-2540 registered an FAS promoter (-444-FAS promoter-luciferase) activity in 293FT cells co-transfected with JMJD1C along with USF-1 of 27 fold. The substance also returned a ChIP-qPCR enrichment at the FAS promoter (FAS promoter luc construct) upon insulin treatment in test [2] of 12 fold.

The record behind these values is publication PMC7005700.
